Results on 1 protein are retold here after publication PMC6938701 (Science Advances, 2020).

What is called stoichiometry N is a count of units in the complex or per binding partner.

This data set concerns the molecule itself. The experiment in a line: non-reducing SDS-PAGE with Western blot.

B1: Recombinant human Prx2 (peroxiredoxin 2) (enzyme, UniProt P32119 2-198, looked up)
chain: ASGNARIGKPAPDFKATAVVDGAFKEVKLSDYKGKYVVLFFYPLDFTFVCPTEIIAFSNRAEDFRKLGCEVLGVSVDSQFTHLAWINTPRKEGGLGPLNIPLLADVTRRLSEDYGVLKTDEGIAYRGLFIIDGKGVLRQITVNDLPVGRSVDEALRLVQAFQYTDEHGEVCPAGWKPGSDTIKPNVDDSKEYFSKHN
For the protein B1, the “stoichiometry N” value stood at 2.
